Assay results from article PMC6980676 (Molecular cell, 2019).

Columns and labels:
[1] = target: T1, Vts1-SNAP (full length) (UniProt Q08831 1-523); assay: fluorescence microscopy co-localization
T1 sequence: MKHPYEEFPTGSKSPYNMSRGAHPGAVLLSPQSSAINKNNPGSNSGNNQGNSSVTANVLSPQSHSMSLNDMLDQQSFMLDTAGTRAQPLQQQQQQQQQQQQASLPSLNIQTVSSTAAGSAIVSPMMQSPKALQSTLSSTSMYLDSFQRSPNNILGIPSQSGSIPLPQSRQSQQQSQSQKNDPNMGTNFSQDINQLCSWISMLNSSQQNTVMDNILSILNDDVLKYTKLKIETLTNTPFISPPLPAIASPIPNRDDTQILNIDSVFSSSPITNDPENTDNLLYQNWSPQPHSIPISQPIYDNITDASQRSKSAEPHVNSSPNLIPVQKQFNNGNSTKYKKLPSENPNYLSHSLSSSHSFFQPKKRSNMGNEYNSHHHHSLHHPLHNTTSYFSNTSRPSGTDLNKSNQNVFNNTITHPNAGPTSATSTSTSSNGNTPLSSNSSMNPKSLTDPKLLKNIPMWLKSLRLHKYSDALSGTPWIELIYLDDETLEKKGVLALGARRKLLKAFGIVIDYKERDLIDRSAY

[2] = target: T1, Vts1-SNAP (full length); assay: fluorescence microscopy co-localization; remark: listed apart in the source
[3] = target: the molecule itself; assay: SEC
[4] = target: the molecule itself; assay: native gel or EMSA

B1: SRE+ RNA (structured_RNA)
RNA: UAAUAAUCAGCUGGCCUGAUUAGUC
B1: binds [1].

B2: SRE- RNA (permuted SRE) (structured_RNA)
RNA: UAAUAAUCAGGUCGCCUGAUUAGUC
In the case of B2, the binding signal [2] is reported as > 5 fold lower co-localized signal than SRE+.

B3: full-length Vts1 with a C-terminal SNAP tag (natural protein, S. cerevisiae, UniProt Q08831 1-523, looked up)
chain: T1 sequence
B3 was tested, and the “stoichiometry N” value [3] was 6.

B4: SNAP^549 labeled full-length Vts1 (natural protein, S. cerevisiae, UniProt Q08831 1-523, looked up)
chain: T1 sequence
modifications: SNAP-Surface 549 dye on the SNAP tag
B4: binds [4].
